A short description of this data set: soluble on expression in E. coli; label from the status in PepcDB or PDB records.
As to “MLKHIPKNISPDLLKTLMEMGHGDEIVLADANYPSASCANKLIRCDGVNIPELLDSILYLMPLDSYVDSSIQFMNVVSGDDIPKIWGTYRQMIEGHGTDLKTITYLRREDFYERSKKAYAIVATGETSLYANIILKKGVVVERENVQ”, the “soluble on expression in E. coli” value is recorded as “soluble”.

Regarding “MGSDKIHHHHHHMTDVNASSESRLAALEARVTELEDLNAIRRLQWAYGYYIDYNRPEEVAGLFAKDGAVVFLSGEYVGYEGVMRLYGTWFQNLFTGGRRGPVHGLLLDHFQLQDVITIAPDGQTAKGRFRGILAGGWHDDIVKDKPEGMPQQFWESGIYENDYVKEDGVWKIKRLDYMMQWQADYETGWSKTIAHLQPAAVCFPENPIGPDRLLPETEVRQTWPHRAEVPMSFAHPVLAKAFAVGEFTKLQKKWP”, the “soluble on expression in E. coli” value is “not soluble”.

Consider “MGSDKIHHHHHHMREKIDALTQNLNRTIVGKTEAIRLVLVALLGGGHALLEDVPGVGKTLLAKSLARSLDGTFQRLQCTPDLLPTDITGTNIWNPKSGEFSFMPGPVFANVVLADEINRATPRTQSALLEVMEEQQVTVDGVSRTVPHPFFVIATQNPVEYQGTFPLPEAQMDRFMLSLSLGYPGVDEELEMLQNLQHGIKVGDLQPCLTLAEVAELREICSQVKVETVLQQYILELVRSTRQDEEITLGVSPRGTVALHKATQALAFLLGRDYAIPDDVKFLAPHVLCHRLIARGGRSARSIVDRLLRSLPIP”, for which the “soluble on expression in E. coli” value was “not soluble”.

As to “MSLSQIVAEVDGYKVTKEELDTLFHVFWKRITHLSSAKPTQEDKRIFLIDYVADLLILKEAKKMGIEVSEKEINDFIRKYVGRKIKEKSVINAVKAEILVEKLVDKLMKEQELNPSEDILRAYYEFYKREFYRPSSVKLLGIYVKSKKEAERISQILKQGEVPSTEDVKVSKPLWYSIPTLPKYIRRNFRTLSVGEVSKPIKINDGYLVFKILDKKPAGFIPFERAKSLVKKMYLKEKRKEVFKKWLSEVLKKYQVRSTGKEGHHHHHH”, the “soluble on expression in E. coli” value was “not soluble”.

Regarding “AVLDLDVRTCLPCGPGGKGRCFGPSICCGDELGCFVGTAEALRCQEENYLPSPCQSGQKPCGSGGRCAAAGICCSPDGCEEDPACDPEAAFS”, the “soluble on expression in E. coli” value is on record as “soluble”.

With “MKCSKCGREAVYFAKYEGKYYCHKHFNEMVESKVKRTIRKYRMIKKGERIGVAVSGGKDSVVLLHLLAKLRKKFPFEIVAITIDEGIKGYRDKSIKVAKKNAELLGVEHHIYRFKDYIGFTLDETVEIMGARGERLGACSYCGVWRRWLLNKAAEELKVDKLALGLNLDDEVQMFLMNLMRGDVARLGRTGPYYEVIHEGLVPRIKPLREVPEKEIVLYAVLNNIEVDLSECPYAVEAFRAEIRDWLNEMEEKHPGTKYQLLRSYDKIFPLLAKTYAKKVKLNRCKICGQPTSGEICKACQFRLQVKERAEKLKFSLSQR”, the “soluble on expression in E. coli” value is “soluble”.

With “MNLRTQKFHMYFKQWIELYKEGAVRPVTYQKYQMSHKHLVTLAPDLHMDELKRRTYQELINEFAANHEKQTTLDFHHHLKAAILDALDEGILEQDPTRKVVIKGTLEHHHHHH”, the “soluble on expression in E. coli” value was “soluble”.

In the case of “MGSDKIHHHHHHVPATYPLSSCIEWQFAEAGDLAARVRAAKADGFDLVEFHLWRDKPVEAIGAALADTGVALTGVCVDPRRSIVDPAERAEMVEAVRETIAATAPLGKPPLIVASGFRVEGMSEEDHFANAVAALKQAAALAEDAGVTLLLEPLNTRLFSAMYLVSTTLGLDLVEAVGSPNLRLLYDVWHSAVMGEDIADVLAGRIGLVAHVQVADMEDRNEPGTGTVDWAHVMNTLKSLGYQGSIGMEYFPTLPMDQSLKLTRETLAL”, the “soluble on expression in E. coli” value is “not soluble”.

Take “FNDWYVSARANFTYNRNKKLYDDKPTPIWPYQSEAGFAYRQQRGLIALGLFESEEDIANSPKQNFGNVRPGDIKYKDINGDNVIDAYDKVAIGYTDVPEINYGFGISLGWKGFDASLFMQGVGNVTRIIGGDALYGASDNIERLGQIYADVAEKRWTTSNPNPNATYPRLSMSKVENNLQPSTYWQRNMSFLRLKNVEIGYTLPKHIYKRLGMSSIRVYAQGVNLLTFSKFKLWDPELDSNYGNIYPQMRTITLGLNLNF”: the “soluble on expression in E. coli” value is reported as “not soluble”.

Turning to “MLPAWGTSTEATASHAGWDGDDEGDIRAAYTEDEKKENIPPISLTSVSTNGAYPGQKRRRSESVRTLKPECPPEETQRLRQRRRISATDATQSSRTMNVIEDRKPRVNRARKSQDAPSTSTCGFETPVGTKRKSKAADSQKPPKQSKLRKIDEASTSKAVDNSSKDGKKTTKPAVTQSNRRRSGLSLRPVPIETIFSESSGRESSTEDEADVSHQQ”, the “soluble on expression in E. coli” value is “not soluble”.

As to “MGSDKIHHHHHHGCSRRDILDDYPVSGVEVRLDWSGVTEKLPEGVRIIFYPKDEKGRKIDTYLSVTGGEVKVPSGHYAVVIYNYDTETVLIRGEESYETIQAYTNFCKLGIAGTEKMVWGPDPLYVVNIDDLDIQNSEETLILKLKPKLVIRTYSFSIKVQGLSNVSNVIGSIGGMADHYFLGKAYAMCDDYPINIDLNVKAGKIEGVFTTFGLPEAIITRLEIKLPVMMNLMIIKVDNSVQEVKINITEAVQEPTGGGEGGEGEETKPPALVEVEIEDEIKVDDVETPPSGGGGIGGDVGDWDDETNVELPVG”, the “soluble on expression in E. coli” value is “not soluble”.

Regarding “MPNVVGVQFQKAGKLEYYAPNQLDVEVGDWVVVQSKRGIEIGHVKFPLREVDVEDVTLPLKNIIRKMNEDDQETYYRNERDANDALELCKKVVKDQQLDMRLVNCEYTLDKSKVIFNFTADDRIDFRKLVKVLAQNLKTRIELRQIGVRDEAKLLGGIGPCGRSLCCSTFLGDFEPVSIKMAKDQNLSLNPTKISGACGRLMCCLKYENDYYEEARTQLPDVGDMIQTPDGHGKVIGLNILDISMQVKIEGLEQPLEYKMEEIEVLNLEHHHHHH”, the “soluble on expression in E. coli” value was “not soluble”.

For “MSLRYPMSKLAYHRVLLKLSGEALMGSADYGIDPKVINRLAGEVIEAQNAGAELALVIGGGNIFRGAGLAAKGMDRVTGDHMGMLATIINALAMQDALEKLGTKVRVMSAIKINNVCEDFIRRRAIRHLEKSRITIFAAGTGNPFFTTDSGAALRAIEIGADLLLKATKVDGIYNKDPQKHCDAVKYSTLSYDEVISQNLEVMDTAAFALARDSNLPLRIFDIEQPGVLLRILHGEEIGTLVKERNSKSEGHHHHHH”, the “soluble on expression in E. coli” value is reported as “not soluble”.

For the sequence “MDYEILFSDETMNYADAGTYCQSRGMALVSSAMRDSTMVKAILAFTEVKGHDYWVGADNLQDGAYNFLWNDGVSLPTDSDLWSPNEPSNPQSWQLCVQIWSKYNLLDDVGCGGARRVICEKELDD”, the “soluble on expression in E. coli” value was “soluble”.

On to “MSLSDDSTFGDATFVVLDFETTGLDPQVDEIIEIGAVKIQGGQIVDEYHTLIKPSREISRKSSEITGITQEMLENKRSIEEVLPEFLGFLEDSIIVAHNANFDYRFLRLWIKKVMGLDWERPYIDTLALAKSLLKLRSYSLDSVVEKLGLGPFRHHRALDDARVTAQVFLRFVEMMKKEGHHHHHH”, for which the “soluble on expression in E. coli” value was “soluble”.

As for “MSLASLIGLAVCTGNAFSPALAAEAKQPNLVIIMADDLGYGDLATYGHQIVKTPNIDRLAQEGVKFTDYYAPAPLSSPSRAGLLTGRMPFRTGIRSWIPSGKDVALGRNELTIANLLKAQGYDTAMMGKLHLNAGGDRTDQPQAQDMGFDYSLANTAGFVTDATLDNAKERPRYGMVYPTGWLRNGQPTPRADKMSGEYVSSEVVNWLDNKKDSKPFFLYVAFTEVHSPLASPKKYLDMYSQYMSAYQKQHPDLFYGDWADKPWRGVGEYYANISYLDAQVGKVLDKIKAMGEEDNTIVIFTSDNGPVTREARKVYELNLAGETDGLRGRKDNLWEGGIRVPAIIKYGKHLPQGMVSDTPVYGLDWMPTLAKMMNFKLPTDRTFDGESLVPVLEQKALKREKPLIFGIDMPFQDDPTDEWAIRDGDWKMIIDRNNKPKYLYNLKSDRYETLNLIGKKPDIEKQMYGKFLKYKTDIDNDSLMKARGDKPEAVTWGEGHHHHHH”, the “soluble on expression in E. coli” value was “soluble”.

“MGSDKIHHHHHHMTQPQMIHPGETPEQHAAFQARIARGEKIEPGDWMPAEYRRQLIRMISQHAHSEVVGMLPEGEWITRAPTLKRKTILIAKVQDEAGHGQYLYHAAETLGVTREEMLDALLSGKAKYSSIFNYPSLTWADVGMIGWLVDGAAIKNQTMLAGCSYGPYSRAMVRICSEETFHHKQGKEMIVAYAQGTPEQKQMAQDALNRWWWPALMMLGPHDADSPNTGALVQWGIKLKTNDEVRQEFINEHVPELLEAGLTIPDPDLHQDEQGNWIHGPINWDEFWAVVKGQQGLHRERLGTRQQAHEEGAWVREAVQAYAARQLGQAAD”: the “soluble on expression in E. coli” value is “not soluble”.

Consider “MNTKPQLTLLKVQASYRGDPTTLFHQLCGARPATLLLESAEINDKQNLQSLLVIDSALRITALGHTVSVQALTANGPALLPLLDEALPPEVRNQARPNGRELTFPAIDAVQDEDARLRSLSVFDALRTILTLVDSPADEREAVMLGGLFAYDLVAGFENLPALRQDQRCPDFCFYLAETLLVLDHQRGSARLQASVFSEQASEAQRLQHRLEQLQAELQQPPQPIPHQKLENMQLSCNQSDEEYGAVVSELQEAIRQGEIFQVVPSRRFSLPCPAPLGPYQTLKDNNPSPYMFFMQDDDFTLFGASPESALKYDAGNRQIEIYPIAGTRPRGRRADGSLDLDLDSRIELEMRTDHKELAEHLMLVDLARNDLARICQAGSRYVADLTKVDRYSFVMHLVSRVVGTLRADLDVLHAYQACMNMGTLSGAPKVRAMQLIAALRSTRRGSYGGRVGYFTAVRNLDTCIVIRSAYVEDGHRTVQAGAGVVQDSIPEREADETRNKARAVLRAIATAHHAKEVF”, for which the “soluble on expression in E. coli” value is listed as “soluble”.

“MALQGISVMELSGLAPGPFCAMVLADFGARVVRVDRPGSRYDVSRLGRGKRSLVLDLKQPRGAAVLRRLCKRSDVLLEPFRRGVMEKLQLGPEILQRENPRLIYARLSGFGQSGSFCRLAGHDINYLALSGGRNSIFKFFSVENSEIESVGSTSRTEHVGWWSTFLYDLQDSRWGIHGCWSNRTPVLRAADQRTWTKV”: the “soluble on expression in E. coli” value is listed as “not soluble”.

“GISPNVLNNMKSYMKHSNIRNIIINIMAHELSVINNHIKYINELFYKLDTNHNGSLSHREIYTVLASVGIKKWDINRILQALDINDRGNITYTEFMAGCYRWKNIESTFLKAAFNKIDKDEDGYISKSDIVSLVHDKVLDNNDIDNFFLSVHSIKKGIPREHIINKISFQEFKDYMLSTF”: the “soluble on expression in E. coli” value is “soluble”.

With “MGSDKIHHHHHHMTTLISFLGKGIADKTTGYRTATYRFDDDSKHTTPYFGLALAGYLRPERLILVGTAGSMWDVFFEQQDASDDDVLALIDAVRESRVDADMLSAQEKRLTKRLGLPVICRLIPYARDAAEQTEVLLTLAKLVHRSEEVFLDVTHGFRHLPMLALVAARYLAHVKDVKVRGLYYGALEMTSTNGETPVLQLDGMLQMLDWVESLATYNKDGDYGVFASLLQQDGLPEGKAKQLTRAAYFERSSNPVKARETLGSVFSAIKTHNGPMGVLFRDALTERINWFKEPDRAAWELALADAYLERRDYVRAVIYLYESFVTRAVLEHKLNPNDFSERDEAWKDARQDNKQVRKLEYLRNALAHGIKSDDKEIIRMVNDENCLDDQLKKFRRSLFN”, the “soluble on expression in E. coli” value was “not soluble”.

Take “MVARRKGERVVRKNEVENVQQRACANRRERQRTKELNDAFTLLRKLIPSMPSDKMSKIHTLRIATDYISFLDEMQKNGCKLYGHSIFDEKRGYNLQSAFNMWRGNNGYTPIAGPSQLPPLQSAHIPPPAPSSIPPHCLMPQPWYQTCPPPKQEFHELCPISTPNPNSNPNQLTPIHWQ”: the “soluble on expression in E. coli” value is “not soluble”.

As to “MKVFEGKPRINSPHITGNYPSTPFIFYIPTSGQRPMQWSAEKLPEGLELDSKTGIISGVMTSKGDYTVTLKAENALGVSVKQLEHHHHHH”, the “soluble on expression in E. coli” value is “not soluble”.
